In the Immune Epitope Database (IEDB):

How the values were obtained:
HLA-A*01:01 = experiment: IEDB peptide-MHC binding, purified MHC/direct/fluorescence; filed as Kd, often an IC50 or EC50 that approximates it; ≥ and ≤ were set here for values at or beyond the usual limits of such assays
HLA-A*02:01 [1] = experiment: as above
HLA-A*03:01 [2] = experiment: as above
HLA-A*11:01 = experiment: as above
HLA-A*24:02 = experiment: as above
HLA-A*31:01 = experiment: as above
HLA-A*69:01 [3] = experiment: as above
HLA-B*07:02 = experiment: as above
HLA-B*08:02 = experiment: as above; settings: source organism: Giardia lamblia ATCC 50803
HLA-B*15:01 [4] = experiment: as above
HLA-B*15:09 = experiment: as above
HLA-B*27:05 = experiment: as above
HLA-B*40:01 = experiment: as above
HLA-B*44:02 = experiment: as above; settings: source organism: Giardia lamblia ATCC 50803
HLA-B*58:01 = experiment: as above
HLA-B*15:02 = experiment: IEDB peptide-MHC binding, purified MHC/competitive/fluorescence; filed as Kd, often an IC50 or EC50 that approximates it; ≥ and ≤ were set here for values at or beyond the usual limits of such assays
HLA-A*02:01 [5] = experiment: as above
HLA-A*02:03 = experiment: as above; settings: source organism: Brucella suis ATCC 23445
HLA-A*02:11 = experiment: as above; settings: source organism: Brucella suis ATCC 23445
HLA-A*02:12 = experiment: as above
HLA-A*02:16 = experiment: as above
HLA-A*02:19 = experiment: as above
HLA-A*03:01 [6] = experiment: as above
HLA-A*24:03 = experiment: as above
HLA-A*26:01 [7] = experiment: as above
HLA-A*29:02 = experiment: as above; settings: source organism: Brucella suis ATCC 23445
HLA-A*68:02 = experiment: as above
HLA-A*69:01 [8] = experiment: as above
HLA-B*15:01 [9] = experiment: as above
HLA-B*15:17 = experiment: as above; settings: source organism: Brucella suis ATCC 23445
HLA-B*18:01 = experiment: as above
HLA-B*27:03 = experiment: as above
HLA-B*39:01 = experiment: as above
HLA-B*46:01 [10] = experiment: as above
HLA-B*51:01 = experiment: as above
HLA-B*57:01 = experiment: as above
HLA-C*03:03 = experiment: IEDB peptide-MHC binding, purified MHC/direct/fluorescence; filed as Kd, often an IC50 or EC50 that approximates it; ≥ and ≤ were set here for values at or beyond the usual limits of such assays; settings: source organism: Bacillus anthracis str. A2012
HLA-C*06:02 = experiment: as above; settings: source organism: Bacillus anthracis str. A2012
HLA-C*07:02 = experiment: as above; settings: source organism: Bacillus anthracis str. A2012
HLA-C*12:03 = experiment: as above; settings: source organism: Bacillus anthracis str. A2012
HLA-C*14:02 = experiment: as above; settings: source organism: Bacillus anthracis str. A2012
HLA-C*15:02 = experiment: as above; settings: source organism: Bacillus anthracis str. A2012
HLA-A*26:01 [11] = experiment: as above; settings: source organism: Influenza A virus(A/swine/Henan/3/2004(H9N2))
HLA-B*08:01 = experiment: as above; settings: source organism: Influenza A virus (A/duck/Mongolia/47/2001(H7N1))
HLA-B*46:01 [12] = experiment: as above; settings: source organism: Influenza A virus (A/duck/Mongolia/47/2001(H7N1))
[13] = source organism: Giardia lamblia ATCC 50803
[14] = source organism: Brucella suis ATCC 23445
[15] = source organism: Bacillus anthracis str. A2012
[16] = source organism: Escherichia coli HS
[17] = source organism: Influenza A virus (A/duck/Mongolia/47/2001(H7N1))

With DEKPKVMEG as the sequence, how does the Kd (HLA-A*01:01; [13]) read?
Its Kd is at least 20 µM.

What about the Kd (HLA-A*02:01 [1]; [13]) of the same sequence?
The Kd was at least 20 µM.

What about the Kd (HLA-A*03:01 [2]; [13]) of the same sequence?
Its Kd is at least 20 µM.

What about the Kd (HLA-A*11:01; [13]) of the same sequence?
The Kd was at least 20 µM.

What about the Kd (HLA-A*24:02; [13]) of the same sequence?
Its Kd is at least 20 µM.

What about the Kd (HLA-A*31:01; [13]) of the same sequence?
Its Kd is at least 20 µM.

And the Kd (HLA-A*69:01 [3]; [13])?
The Kd was at least 20 µM.

What about the Kd (HLA-B*07:02; [13]) of the same sequence?
Its Kd is at least 20 µM.

And the Kd (HLA-B*08:02)?
Its Kd is at least 20 µM.

What about the Kd (HLA-B*15:01 [4]; [13]) of the same sequence?
The Kd was at least 20 µM.

What about the Kd (HLA-B*15:09; [13]) of the same sequence?
The Kd was at least 20 µM.

What about the Kd (HLA-B*27:05; [13]) of the same sequence?
Its Kd is at least 20 µM.

What about the Kd (HLA-B*40:01; [13]) of the same sequence?
Its Kd is at least 20 µM.

And the Kd (HLA-B*44:02)?
The Kd was at least 20 µM.

What about the Kd (HLA-B*58:01; [13]) of the same sequence?
The Kd was at least 20 µM.

With FLRSSSAIE as the sequence, how does the Kd (HLA-B*15:02; source organism: Coxiella burnetii Dugway 5J108-111) read?
The Kd was at least 20000 nM.

Which results are given for ITAVNRYFK?
Kd (HLA-A*02:01 [5]; [14]): ≥ 20 µM; Kd (HLA-A*02:03): ≥ 20 µM; Kd (HLA-A*02:11): ≥ 20 µM; Kd (HLA-A*02:12; [14]): ≥ 20 µM; Kd (HLA-A*02:16; [14]): ≥ 20 µM; Kd (HLA-A*02:19; [14]): ≥ 20 µM; Kd (HLA-A*03:01 [6]; [14]): 57 nM; Kd (HLA-A*24:03; [14]): ≥ 20 µM; Kd (HLA-A*26:01 [7]; [14]): ≥ 20 µM; Kd (HLA-A*29:02): 757 nM; Kd (HLA-A*68:02; [14]): ≥ 20 µM; Kd (HLA-A*69:01 [8]; [14]): ≥ 20 µM; Kd (HLA-B*15:01 [9]; [14]): ≥ 20 µM; Kd (HLA-B*15:17): ≥ 20 µM; Kd (HLA-B*18:01; [14]): ≥ 20 µM; Kd (HLA-B*27:03; [14]): ≥ 20 µM; Kd (HLA-B*39:01; [14]): ≥ 20 µM; Kd (HLA-B*46:01 [10]; [14]): ≥ 20 µM; Kd (HLA-B*51:01; [14]): ≥ 20 µM; Kd (HLA-B*57:01; [14]): ≥ 20 µM

For GQRDTDVPY, which Kd (HLA-B*15:02; source organism: Yersinia enterocolitica subsp. enterocolitica 8081) is on record?
The Kd was 1240 nM.

For SMFDSWGPF, which Kd (HLA-C*03:03) is on record?
Its Kd is at least 20 µM.

What about the Kd (HLA-C*06:02) of the same sequence?
The Kd was at least 20 µM.

What about the Kd (HLA-C*07:02) of the same sequence?
The Kd was 224 nM.

And the Kd (HLA-C*12:03)?
The Kd was 102 nM.

What about the Kd (HLA-C*14:02) of the same sequence?
The Kd was 185 nM.

What about the Kd (HLA-C*15:02) of the same sequence?
Its Kd is at least 20 µM.

What about the Kd (HLA-B*15:02; [15]) of the same sequence?
Its Kd is 5 nM.

What about the Kd (HLA-B*46:01 [10]; [15]) of the same sequence?
The Kd was 0.0043 µM.

With WIGQTSHGW as the sequence, how does the Kd (HLA-B*15:02; source organism: Vibrio cholerae) read?
Its Kd is at least 20000 nM.

With ISLWGSLLK as the sequence, how does the Kd (HLA-A*02:01 [5]; [16]) read?
The Kd was at least 20 µM.

What about the Kd (HLA-A*02:12; [16]) of the same sequence?
Its Kd is at least 20 µM.

And the Kd (HLA-A*02:16; [16])?
Its Kd is at least 20 µM.

What about the Kd (HLA-A*02:19; [16]) of the same sequence?
The Kd was at least 20 µM.

What about the Kd (HLA-A*03:01 [6]; [16]) of the same sequence?
The Kd was 33.9 nM.

And the Kd (HLA-A*24:03; [16])?
Its Kd is at least 20 µM.

And the Kd (HLA-A*26:01 [7]; [16])?
Its Kd is at least 20 µM.

And the Kd (HLA-A*68:02; [16])?
Its Kd is at least 20 µM.

And the Kd (HLA-A*69:01 [8]; [16])?
Its Kd is at least 20 µM.

What about the Kd (HLA-B*15:01 [9]; [16]) of the same sequence?
The Kd was at least 20 µM.

What about the Kd (HLA-B*18:01; [16]) of the same sequence?
Its Kd is at least 20 µM.

And the Kd (HLA-B*27:03; [16])?
The Kd was at least 20 µM.

And the Kd (HLA-B*39:01; [16])?
The Kd was at least 20 µM.

And the Kd (HLA-B*46:01 [10]; [16])?
Its Kd is at least 20 µM.

And the Kd (HLA-B*51:01; [16])?
Its Kd is at least 20 µM.

What about the Kd (HLA-B*57:01; [16]) of the same sequence?
The Kd was at least 20 µM.

How did the Kd (HLA-A*01:01; [17]) turn out when NESGRLIDF was run?
The Kd was at least 20 µM.

What about the Kd (HLA-A*02:01 [1]; [17]) of the same sequence?
Its Kd is at least 20 µM.

What about the Kd (HLA-A*03:01 [2]; [17]) of the same sequence?
The Kd was at least 20 µM.

And the Kd (HLA-A*11:01; [17])?
Its Kd is at least 20 µM.

What about the Kd (HLA-A*24:02; [17]) of the same sequence?
Its Kd is at least 20 µM.

What about the Kd (HLA-A*26:01 [11]) of the same sequence?
The Kd was at least 20 µM.

What about the Kd (HLA-A*31:01; [17]) of the same sequence?
The Kd was at least 20 µM.

What about the Kd (HLA-A*69:01 [3]; [17]) of the same sequence?
Its Kd is at least 20 µM.

And the Kd (HLA-B*07:02; [17])?
The Kd was at least 20 µM.

What about the Kd (HLA-B*08:01) of the same sequence?
Its Kd is at least 20 µM.

And the Kd (HLA-B*15:01 [4]; [17])?
Its Kd is at least 20 µM.

And the Kd (HLA-B*15:09; source organism: Influenza A virus(A/swine/Henan/3/2004(H9N2)))?
Its Kd is at least 20 µM.

What about the Kd (HLA-B*27:05; [17]) of the same sequence?
Its Kd is at least 20 µM.

What about the Kd (HLA-B*40:01; source organism: Influenza A virus (A/Puerto Rico/8/34/Mount Sinai(H1N1))) of the same sequence?
Its Kd is at least 5 µM.

And the Kd (HLA-B*46:01 [12])?
Its Kd is at least 20 µM.

What about the Kd (HLA-B*58:01; [17]) of the same sequence?
The Kd was at least 20 µM.
